From US20240261333A1 (published 2024)

T1: TBL2 (human, UniProt Q9Y4P3 1-447)
T1 construct: also called NP_036585.1
T1 sequence (looked up): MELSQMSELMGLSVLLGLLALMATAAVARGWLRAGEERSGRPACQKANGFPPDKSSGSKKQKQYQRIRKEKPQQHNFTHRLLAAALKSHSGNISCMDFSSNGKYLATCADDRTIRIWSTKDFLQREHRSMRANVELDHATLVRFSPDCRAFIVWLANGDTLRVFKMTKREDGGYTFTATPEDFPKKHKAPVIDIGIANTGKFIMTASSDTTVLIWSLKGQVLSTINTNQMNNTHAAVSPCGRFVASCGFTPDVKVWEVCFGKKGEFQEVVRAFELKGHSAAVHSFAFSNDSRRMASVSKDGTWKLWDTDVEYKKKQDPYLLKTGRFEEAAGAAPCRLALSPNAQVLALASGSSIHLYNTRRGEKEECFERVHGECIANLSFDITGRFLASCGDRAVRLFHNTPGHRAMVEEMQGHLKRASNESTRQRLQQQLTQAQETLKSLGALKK

T2: YTHDF2 (human, UniProt Q9Y5A9 2-579)
T2 construct: also called NP_057342.2
T2 sequence (looked up): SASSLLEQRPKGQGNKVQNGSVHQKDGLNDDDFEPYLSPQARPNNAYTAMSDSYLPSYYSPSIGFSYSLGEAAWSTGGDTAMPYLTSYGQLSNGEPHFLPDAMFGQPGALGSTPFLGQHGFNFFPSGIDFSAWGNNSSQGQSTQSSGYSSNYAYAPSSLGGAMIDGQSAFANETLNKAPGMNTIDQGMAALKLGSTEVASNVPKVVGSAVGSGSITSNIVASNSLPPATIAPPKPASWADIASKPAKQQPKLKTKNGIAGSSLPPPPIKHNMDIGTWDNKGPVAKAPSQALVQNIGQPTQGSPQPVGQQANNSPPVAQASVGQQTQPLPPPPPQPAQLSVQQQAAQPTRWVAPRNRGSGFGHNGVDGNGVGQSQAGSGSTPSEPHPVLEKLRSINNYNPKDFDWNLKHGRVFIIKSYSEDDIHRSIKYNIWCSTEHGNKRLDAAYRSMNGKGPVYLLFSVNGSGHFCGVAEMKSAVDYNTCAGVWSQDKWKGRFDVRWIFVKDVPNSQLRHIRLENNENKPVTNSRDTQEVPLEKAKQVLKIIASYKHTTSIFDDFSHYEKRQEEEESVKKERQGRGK

T3: SBSN (human, UniProt Q6UWP8 26-590)
T3 construct: also called NP_00159506.1 (+2)
T3 sequence (looked up): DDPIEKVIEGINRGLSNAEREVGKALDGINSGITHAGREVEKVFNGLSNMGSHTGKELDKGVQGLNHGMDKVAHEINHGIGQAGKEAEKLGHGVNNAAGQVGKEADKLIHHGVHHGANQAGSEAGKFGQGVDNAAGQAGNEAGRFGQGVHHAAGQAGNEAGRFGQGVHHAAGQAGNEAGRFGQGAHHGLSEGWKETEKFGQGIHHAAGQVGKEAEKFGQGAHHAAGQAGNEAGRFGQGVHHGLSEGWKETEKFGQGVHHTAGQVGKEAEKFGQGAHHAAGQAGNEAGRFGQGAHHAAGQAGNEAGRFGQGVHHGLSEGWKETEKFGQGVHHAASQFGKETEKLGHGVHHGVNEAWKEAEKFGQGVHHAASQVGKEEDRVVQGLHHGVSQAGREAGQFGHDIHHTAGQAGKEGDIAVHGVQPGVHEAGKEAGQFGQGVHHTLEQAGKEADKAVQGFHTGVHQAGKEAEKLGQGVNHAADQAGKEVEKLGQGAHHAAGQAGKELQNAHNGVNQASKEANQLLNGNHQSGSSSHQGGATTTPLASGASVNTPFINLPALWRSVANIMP


Legend:
Test in all cases: co-IP with anti-FLAG, N-FLAG B3GNT2, mass spectrometry
TBL2 = biological target: T1, TBL2
YTHDF2 = biological target: T2, YTHDF2
PKM = biological target: T4, PKM (human, UniProt P14618 2-531, limits assumed)
T4 construct: also called NP_001193725.1 (+3)
T4 sequence (P14618 2-531 limits assumed): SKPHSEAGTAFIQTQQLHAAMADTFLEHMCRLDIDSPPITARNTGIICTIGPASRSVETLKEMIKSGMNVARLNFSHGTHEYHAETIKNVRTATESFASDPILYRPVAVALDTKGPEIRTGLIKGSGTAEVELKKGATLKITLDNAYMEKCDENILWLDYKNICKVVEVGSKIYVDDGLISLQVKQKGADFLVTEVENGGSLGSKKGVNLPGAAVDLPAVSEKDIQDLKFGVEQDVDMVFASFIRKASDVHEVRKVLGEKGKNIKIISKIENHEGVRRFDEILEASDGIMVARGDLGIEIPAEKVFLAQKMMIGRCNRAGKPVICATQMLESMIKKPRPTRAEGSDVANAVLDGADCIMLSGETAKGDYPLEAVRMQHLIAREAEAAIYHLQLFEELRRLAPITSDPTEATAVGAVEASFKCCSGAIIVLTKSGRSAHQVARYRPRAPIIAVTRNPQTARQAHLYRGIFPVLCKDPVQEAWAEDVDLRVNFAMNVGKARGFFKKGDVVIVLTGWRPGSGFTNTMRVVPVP

P4HA2 = biological target: T5, P4HA2 (human, UniProt O15460 22-535, limits assumed)
T5 construct: also called NP_001352606.1 (+3)
T5 sequence (O15460 22-535 limits assumed): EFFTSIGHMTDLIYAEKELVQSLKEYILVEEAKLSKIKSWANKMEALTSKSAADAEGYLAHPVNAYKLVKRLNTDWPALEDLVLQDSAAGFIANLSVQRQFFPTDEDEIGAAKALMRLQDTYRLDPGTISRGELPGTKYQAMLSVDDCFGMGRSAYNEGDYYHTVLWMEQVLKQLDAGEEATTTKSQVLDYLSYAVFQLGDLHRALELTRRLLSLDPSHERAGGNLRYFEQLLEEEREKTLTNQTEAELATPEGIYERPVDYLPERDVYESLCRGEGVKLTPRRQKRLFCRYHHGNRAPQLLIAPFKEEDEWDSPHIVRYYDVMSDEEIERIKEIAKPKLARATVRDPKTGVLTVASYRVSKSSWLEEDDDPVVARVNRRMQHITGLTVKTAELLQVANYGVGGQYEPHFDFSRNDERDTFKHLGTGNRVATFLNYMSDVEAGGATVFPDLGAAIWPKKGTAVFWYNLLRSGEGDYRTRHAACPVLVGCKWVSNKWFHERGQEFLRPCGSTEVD

SBSN = biological target: T3, SBSN

co-IP mass spectrometry count (TBL2)	co-IP mass spectrometry count (YTHDF2)	co-IP mass spectrometry count (PKM)	co-IP/MS count, N-term FLAG (P4HA2)	co-IP/MS count, N-term FLAG (SBSN)	Binder
0	5	3	–	–	N-terminal FLAG tagged B3GNT2 (enzyme, human, UniProt Q9NY97 1-397, looked up, FLAG-tagged ORF overexpressed in cells; pulled down from lysate with mouse anti-FLAG; also called N-FLAG B3GNT2; N-term FLAG; not shown: N-terminal FLAG tag) MSVGRRRIKLLGILMMANVFIYFIMEVSKSSSQEKNGKGEVIIPKEKFWKISTPPEAYWNREQEKLNRQYNPILSMLTNQTGEAGRLSNISHLNYCEPDLRVTSVVTGFNNLPDRFKDFLLYLRCRNYSLLIDQPDKCAKKPFLLLAIKSLTPHFARRQAIRESWGQESNAGNQTVVRVFLLGQTPPEDNHPDLSDMLKFESEKHQDILMWNYRDTFFNLSLKEVLFLRWVSTSCPDTEFVFKGDDDVFVNTHHILNYLNSLSKTKAKDLFIGDVIHNAGPHRDKKLKYYIPEVVYSGLYPPYAGGGGFLYSGHLALRLYHITDQVHLYPIDDVYTGMCLQKLGLVPEKHKGFRTFDIEEKNKNNICSYVDLMLVHSRKPQEMIDIWSQLQSAHLKC
–	–	–	0	27	N-terminal FLAG tagged B3GNT2 (enzyme, human, UniProt Q9NY97 1-397, looked up, FLAG-tagged ORF overexpressed in A375 cells; pulled down from the lysate with mouse anti-FLAG; also called N-FLAG B3GNT2; N-term FLAG; not shown: N-terminal FLAG tag) MSVGRRRIKLLGILMMANVFIYFIMEVSKSSSQEKNGKGEVIIPKEKFWKISTPPEAYWNREQEKLNRQYNPILSMLTNQTGEAGRLSNISHLNYCEPDLRVTSVVTGFNNLPDRFKDFLLYLRCRNYSLLIDQPDKCAKKPFLLLAIKSLTPHFARRQAIRESWGQESNAGNQTVVRVFLLGQTPPEDNHPDLSDMLKFESEKHQDILMWNYRDTFFNLSLKEVLFLRWVSTSCPDTEFVFKGDDDVFVNTHHILNYLNSLSKTKAKDLFIGDVIHNAGPHRDKKLKYYIPEVVYSGLYPPYAGGGGFLYSGHLALRLYHITDQVHLYPIDDVYTGMCLQKLGLVPEKHKGFRTFDIEEKNKNNICSYVDLMLVHSRKPQEMIDIWSQLQSAHLKC
